This is an account of results in US20180118821A1 (Eli Lilly, published 2018).

Read-outs that look alike come from different tables or passages of the source.

The target in experiment [1] is Cynomolgus monkey IL-33 (cynomolgus monkey). The experiment in a line: cell-based or functional assay.
The target in experiment [2] is T1, Human IL-33 (human, UniProt O95760 95-270, limits assumed).
T1 sequence: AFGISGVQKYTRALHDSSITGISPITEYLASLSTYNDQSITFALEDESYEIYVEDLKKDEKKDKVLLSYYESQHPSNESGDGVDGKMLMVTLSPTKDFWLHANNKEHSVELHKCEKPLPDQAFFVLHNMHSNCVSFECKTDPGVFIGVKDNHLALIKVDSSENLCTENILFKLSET
In words: cell-based or functional assay.

Experiment [3] concerns the target T1, Human IL-33. In words: cell-based or functional assay. The source holds these as a separate data set.
In experiment [4] the target is T2, Cynomolgus monkey IL-33 (cynomolgus monkey, UniProt A0A2K5W3I1 95-269).
T2 sequence: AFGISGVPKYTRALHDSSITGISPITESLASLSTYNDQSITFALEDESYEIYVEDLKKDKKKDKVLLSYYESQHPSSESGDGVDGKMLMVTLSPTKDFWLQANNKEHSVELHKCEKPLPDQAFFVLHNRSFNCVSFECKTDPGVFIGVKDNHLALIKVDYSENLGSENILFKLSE
The experiment in a line: cell-based or functional assay.

Experiment [5] deals with T1, Human IL-33. The experiment in a line: cell-based or functional assay. The source holds these as a separate data set.
The target in experiment [6] is T2, Cynomolgus monkey IL-33. The experiment in a line: SPR (Biacore T100/T200), antibody captured on Protein A, 37° C., 1:1 model. The protocol: (§1) A CM4 chip containing immobilized Protein A (generated using standard NHS-EDC amine coupling) on all four flow cells (Fc) is used to employ a capture method. Antibody samples are prepared at 10 μg/mL in running buffer. Mouse, rat, and rabbit IL-33 samples are prepared at final concentrations of 1000, 500, 250, 125, 63, 31, 16, and 0 nM in running buffer. Human and Cynomologus IL-33 samples are prepared at final concentrations of 250, 125, 63, 31, 16, 8, 4, 2, 1, and 0 nM in running buffer. Each analysis cycle involves the steps of (1) capturing antibody samples on separate flow cells (Fc2, Fc3, or Fc4); (2) injecting 200 μL of IL-33 over all flow cells at 100 μL/min; (3) returning to buffer flow for a minimum of 10 min at 100 μL/min to monitor complex dissociation; (4) regenerating the chip surface with two sequential injections of 7.5 microliters of glycine, pH1.5; and (5) equilibrating the chip surface for 5 minutes prior to repeating the cycle. Each IL-33 concentration is injected in duplicate. Data is processed using standard double-referencing and fit to a 1:1 binding model using Biacore T100 Evaluation software, version 2.0.1, to determine the association rate (on-rate, kₒₙ, M⁻¹s⁻¹ units) and the dissociation rate (off-rate, koff, s⁻¹ units). The equilibrium dissociation constant (KD) is calculated from the relationship KD=koff/kₒₙ, and is in molar units. Three experimental replicates (n) are conducted for the binding of Antibody 43 to human and cynomolgus monkey IL-33.
(Surface plasmon resonance follows binding to a sensor surface in real time, without labels.)

The target of experiment [7] is T1, Human IL-33. The description is as above. On the procedure:
as §1

A further experiment deals with T3, IL-36α (human, UniProt Q9UHA7 6-158).
T3 sequence (looked up): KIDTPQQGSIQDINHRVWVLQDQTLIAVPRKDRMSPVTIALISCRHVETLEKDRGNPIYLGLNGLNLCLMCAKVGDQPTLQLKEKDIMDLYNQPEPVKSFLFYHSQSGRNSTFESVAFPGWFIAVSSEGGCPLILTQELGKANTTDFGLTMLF
The experiment in a line: SPR (BIAcore 2000), antibody captured on Protein A, analyte at 500 nM. On the procedure:
(§2) Protein A (Calbiochem) is coupled via free amine groups to carboxyl groups on flow cells 1 and 2 of a CM5 biosensor chip (GE Healthcare) using a mixture of N-ethyl-N-(dimethylaminopropyl)-carbodiimide (EDC) and N-hydroxysuccinimide (NHS). To capture positive control antibodies, Rabbit anti-Goat IgG (Fc specific) is coupled to flow cell 3, and Rabbit anti-Rat IgG (Fc specific) is coupled to flow cell 4 (both from Jackson ImmunoResearch). Flow cells are monitored with a flow rate of 30 μL/minute using a buffer containing 0.01 M HEPES, pH 7.4, 150 mM NaCl, 0.005% surfactant P20. Antibody 43 is captured on flow cell 2 to yield a total of 300 to 800 response units (RU; results reflect flow cell 2 minus flow cell 1). Binding tests are followed by a regeneration step using glycine-HCl (pH 1.5) between each cycle. Flow cell 1 is used as a control to monitor non-specific binding of analytes tested. The exemplified antibody is tested with all analytes of the human IL-1 protein family as listed at 500 nM concentration.

The target of another experiment is IL-1RA (human, UniProt P18510 26-177). The description is as above. On the procedure: as §2
A further experiment addresses T4, IL-1α (human, UniProt P01583 113-271).
T4 sequence (looked up): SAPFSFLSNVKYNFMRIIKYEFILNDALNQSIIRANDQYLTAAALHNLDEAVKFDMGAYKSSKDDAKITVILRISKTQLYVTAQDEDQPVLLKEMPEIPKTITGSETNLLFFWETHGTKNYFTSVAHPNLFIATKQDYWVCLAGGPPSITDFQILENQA
Described as above. On the procedure:
as §2

A further experiment deals with T5, IL-36RA (human, UniProt Q9UBH0 2-155).
T5 sequence (looked up): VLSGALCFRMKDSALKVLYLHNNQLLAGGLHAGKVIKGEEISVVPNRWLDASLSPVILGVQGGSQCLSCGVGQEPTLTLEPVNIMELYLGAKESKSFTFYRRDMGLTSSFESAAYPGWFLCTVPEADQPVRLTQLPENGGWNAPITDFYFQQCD
Described as above. On the procedure:
as §2

A further experiment addresses T6, IL-37 (human, UniProt Q9NZH6 46-218, limits assumed).
T6 sequence (looked up): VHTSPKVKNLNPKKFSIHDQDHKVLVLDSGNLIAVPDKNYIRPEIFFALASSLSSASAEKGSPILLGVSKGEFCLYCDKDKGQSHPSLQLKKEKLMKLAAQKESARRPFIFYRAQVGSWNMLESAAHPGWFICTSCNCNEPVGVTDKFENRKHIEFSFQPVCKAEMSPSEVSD
The description is as above. On the procedure:
as §2

The target in another experiment is IL-1β (human, UniProt P01584 117-269). The experiment is described as above. On the procedure: as §2
For a further experiment, the target named is T7, IL-36β (human, UniProt Q9NZH7-2 5-157).
T7 sequence (looked up): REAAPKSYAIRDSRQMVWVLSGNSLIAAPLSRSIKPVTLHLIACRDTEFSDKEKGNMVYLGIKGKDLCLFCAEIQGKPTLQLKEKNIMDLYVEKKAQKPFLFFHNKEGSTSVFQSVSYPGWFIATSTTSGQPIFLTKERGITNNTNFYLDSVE
The experiment is described as above. On the procedure: as §2

The target in another experiment is T8, IL-18 (human, UniProt Q14116 37-193).
T8 sequence (looked up): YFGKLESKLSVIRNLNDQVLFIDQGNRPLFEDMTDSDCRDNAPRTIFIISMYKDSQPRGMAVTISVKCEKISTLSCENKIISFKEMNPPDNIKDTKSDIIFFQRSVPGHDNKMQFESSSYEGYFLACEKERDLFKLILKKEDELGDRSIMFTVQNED
The description is as above. The protocol: as §2

Another experiment deals with T9, IL-36γ (human, UniProt Q9NZH8 18-169).
T9 sequence (looked up): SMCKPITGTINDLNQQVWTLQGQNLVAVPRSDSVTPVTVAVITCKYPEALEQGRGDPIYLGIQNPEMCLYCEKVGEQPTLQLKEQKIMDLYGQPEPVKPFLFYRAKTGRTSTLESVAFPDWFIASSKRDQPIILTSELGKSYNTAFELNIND
The experiment is described as above. On the procedure: as §2

In experiment [8] the target is T2, Cynomolgus monkey IL-33. The experiment in a line: SPR affinities. On the procedure:
as §1, with “Three experimental replicates (n) are conducted for the binding of Antibody 43 to human and cynomolgus monkey IL-33.” left out

In experiment [9] the target is T2, Cynomolgus monkey IL-33. The experiment in a line: SPR (Biacore), antibody captured on Protein A, 37° C., 1:1 model. On the procedure:
as §1

Experiment [10] has as its target T1, Human IL-33. Described as above. On the procedure:
as §1

Sequence of IL-1RA (P18510 26-177 limits assumed): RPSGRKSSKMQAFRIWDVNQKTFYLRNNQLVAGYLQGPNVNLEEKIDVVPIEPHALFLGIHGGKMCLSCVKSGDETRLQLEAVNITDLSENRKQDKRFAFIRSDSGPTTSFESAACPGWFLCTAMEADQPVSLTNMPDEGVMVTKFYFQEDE

Regarding “Human monomeric ST2 (IL1RL1) (from UniProt Q01638 19-328) (receptor)”, the IC50 in the in vitro NFκB-GEC-luciferase activity assay in experiment [1] came out at 0.175 nM. Moreover, in the experiment with Human IL-33 [2], the IC50 in the in vitro NFκB-GEC-luciferase activity assay was 0.426 nM and the IC50 of inhibition of IL-33-induced GM-CSF secretion from human mast cells was found to be 7.6 nM.

B1: Antibody 43 (antibody, human IgG4 S228P, kappa, F234A L235A, V domains shown)
VH: EVQLVETGGGLIQPGGSLRLSCAASGFTFSFYAMSWVRQAPGKGLEWVSAISGSGGSTYYADSVKGRFTISRDNSKNTLYLQMNSLRAEDTAVYYCARTIHGIRAAYDAFIIWGQGTLVTVSS
VL: EIVLTQSPGTLSLSPGERATLSCRASQSVGINLSWYQQKPGQAPRLLIYGASHRLTGIPDRFSGSGSGTDFTLTISRLEPEDFAVYYCHQYSQPPPFTFGGGTKVEIKR
notes: Derived from Antibody 54 by engineering to reduce potential immunogenicity; expressed in CHO cells; also called Ab 43; Exemplified Antibody
As to B1, in the experiment with Human IL-33 [3], the “IC50 of inhibition of IL-33-induced GM-CSF secretion from human mast cells” value was 0.3 nM. The entries for the “IC50 in the in vitro NFκB-GEC-luciferase activity assay” value with Cynomolgus monkey IL-33 [4] and with Human IL-33 [5] were 1.92 nM and 0.33 nM, respectively. For the same molecule, the Kd in the experiment with Cynomolgus monkey IL-33 [6] was 0.338 nM; with Human IL-33 [7] it was 0.049 nM. Further, the values for the koff in the experiment with Cynomolgus monkey IL-33 [6] and with Human IL-33 [7] were 0.00051 s⁻¹ and 7.2e-05 s⁻¹, respectively. Also, the kon in the experiment with Cynomolgus monkey IL-33 [6] and in the experiment with Human IL-33 [7] was 1.5e+06 M⁻¹ s⁻¹ each time. Moreover, the binding result with IL-36α, in the experiment with IL-1RA, with IL-1α, in the experiment with IL-36RA, with IL-37 and with IL-1β was “no binding (tested: 500 nM)” throughout. Besides, the binding result in the experiment with IL-36β, with IL-18 and with IL-36γ was “no binding (tested: 500 nM)” each time.

B2: Antibody 75 (antibody, human IgG4 S228P, kappa, F234A L235A, V domains shown)
VH: EVQLVETGGGLIQPGGSLRLSCAASGFTFSSYAMSWVRQAPGKGLEWVSAISGSGGSTYYADSVKGRFTISRDNSKNTLYLQMNSLRAEDTAVYYCARTLHGIRAAYDAFIIWGQGTLVTVSS
VL: EIVLTQSPGTLSLSPGERATLSCRASQSVGINLSWYQQKPGQAPRLLIYGASHRATGIPDRFSGSGSGTDFTLTISRLEPEDFAVYYCHQYSQSPPFTFGGGTKVEIKR
notes: Human IgG4 antibody; 3-53 heavy chain framework and A27 light chain framework with the CDRs of Antibody 23; also called Ab 75
Consider B2, for which the “fold difference in species cross-reactivity (affinity to cynomolgus IL-33 against human IL-33)” value in the experiment with Cynomolgus monkey IL-33 [8] was around 850 fold. Besides, the “IC50 in the in vitro NFκB-GEC-luciferase activity assay” value with Human IL-33 [5] was found to be 0.286 nM. In the experiment with Cynomolgus monkey IL-33 [9], this molecule showed a Kd of 12.4 nM, a koff of 0.019 s⁻¹ and a kon of 1.7e+06 M⁻¹ s⁻¹. In the experiment with Human IL-33 [10], this molecule displayed a Kd of 0.0145 nM, a koff of 2.6e-05 s⁻¹ and a kon of 1.7e+06 M⁻¹ s⁻¹.

The term Kd denotes the free concentration of one partner at which half of the binding sites on the other are occupied at equilibrium, for simple one-to-one binding. A word on the koff: it is a measure of how fast the partners let go of each other. By kon is commonly meant the second-order rate constant of association.
